Results reported in the domain aggregation screens of Martell et al. (2025).

Assay: soluble fraction after stress (log2 fold change); higher = more stays soluble; pooled small domains, quantitative proteomics
Conditions: stress: pH 4
Method in brief: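 Values are on a log2 scale, where higher means more of the domain stayed soluble after pH 4 stress. They are fold changes in the soluble amount of each domain from pooled custom libraries, measured by high-throughput quantitative proteomics. The fold change is taken to reflect aggregation propensity.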

Sequence | soluble fraction (log2)
HMTFEAKKGYINADMSVNVRETASTSATVIITLNPNTEVKVVGEENDFYKIEYKEYKGYVAKRLISDSQVQ | -0.142
HMRDLTARQQQILALIRQHIADTGFPPTRAEIAAQLGFRSPNAAEEHLKALARKGVIELASGASRGIRLK | 0.283
HMTSSQRDSILEFLKTRKDHPTADVVYMNVRKSFPNISLGTVYRNLTLLSDIGQIAKIRVGDGVDHFDADT | -0.073
HMRTAFPQLTERELEILDLIAAGRNNAQIASALYLAPKTVRNNVSNILAKLQATDRAEAIIRARDAGLGG | 0.273
HMSLSEGVSADVVADVQARLMELGYMDEDDPDGNFSESTRIAVEHFQQQAGLPVTGTVDKATLDALNSPD | -0.231
HMDLEIENYDLREILNLFKLDYNFDNVDLKRAQKIALKTHPDKSNLPKEYFMFFMKAFQIVQQIYYYRY | -1.09
HMLGVKKFGGEAVIAGNIILRQRGTKWITGSNVGIGKDHTLFAKIEGYVVFERMRGRDGQQQISIYP | -0.192
HMGKRPTIQMVAEMAGVSRGTVDRVLNGRSYVSAQVRQRVLAALQETGYISSREHHQQALQS | 0.0645
HMEEDDGVDFHERLTELNDEQVYYLINTEPAKVIALALDQLGQKRKINIMNRFNPDMKHSIIMELGKL | -0.666
HMQAALEVQASAGVLAPVPPDQRQALLDTLAQDPRPGYQHEAGRVYGFPFGGFEVRFTVSDGLLTVLSAYK | -1.16
HMRFNIGNVIEHYKLNTEDLAKVLFPTVKYPKQAFDRVLKGEANLDVIQLERLANHIGVLVTDLF | -0.659
HMLPSWLPTDAWEAFLEARVAMKARPTERAKGLLLGELSKLVSQGQDARAVLEQSVQRGWRGLFPVK | 0.0676
HMPSKKHARWIELEARKFMADNEDAVSDLHELRTRAANFAALKTSTLPVDQHRAIVAGFVARVNELGRRI | -0.19
HMETIVGIDPDSKKKIVLKKGIKGRPDYLSFNKKNYSLPSELKEKNVSLEQALEIINDKKSNKKKIK | 0.201
HMVNAVKFAIEKMPYKYSSLLTLKYVMGYSGKEIAEITGLSETNVRQQLLKGRKLLESMLEE | -0.105
HMPVGVPGVVYNTDSLNVRKGAGTNYDIVSKLKRGSVIEVLEQTAVDGTVWGRIAEGWVNMEYVSL | -0.363
HMIDLGKSRTWHSENGRAIEARVINISEEQQTVEMQRVDGLKFELSWNQLSKADQTLLAEAAKKTALVA | 0.276
HMNLLPAGTYKLKDLVTAEDEEIGAKKGDVVIAHEDTPPSDRVLGVDIFPVIHKNTSKKIYVSLEDI | 0.101
HMKRDYELPAFIETYLKKNHVAIDTKSAAMIAEHIGADLSRLISELDKVMISLPDDDRRVTPDVVEREI | -0.436

Sequence | soluble fraction (log2)
HMAKTALEQAQAMVAAYVAAEQQILLGKEVRMGGPGIDRWLRFEDLQEVRAGRKEWESTVTRLQNTAA | -0.769
HMNTAIPIAIDQLRIGMYIQLGLNWMSHPFPVSSFRIASESQIEILRGLGLAEVRYVPAKSDPVP | -0.911
HMPAFWILAVLAGGRRHGYQIMREAALSSEGLVTLKPTTLYAALERLERDGAIQQDGEEIVDGRVRRYYRI | -0.305
HMGYTPGVVIQKSAILEEINQPDLALGMMLEAVKKDSQNLDILNRLVTLLIDQKKNEDAEIYNKKIIT | 0.187
HMQDSIYYAQYRINIRNMPSSEGMVISRASVGEALEVLDWQEQWSKVRKQSGVEGYVASRLLTK | -0.64
HMGSTYGISRVDNETSRTHGWLVTIQRRGVIYRKHFSDGVFGGKQRSFAAAKEYRDEVIAAHP | -0.00453
HMSAHDLQVVLRWIGTDEPMTDQRYRITTEDGRTFEGRTDDAGLTERVASTIPFGRYSIEALD | -1
HMEQAMIVILKENPDRRQLEFLTGWLQKQQIGIHISEGAHQTVLGLVGDATRLDIDMLKQMEIVEDVKRVQ | -0.953
HMGIDSSVYVEARYELGHLYLKQKKYAAAYASFKEILDMYASTTPGVLPGAYNKLAEIGMKRIPKNKL | -0.182
HMLERKFGTSLEIKSLSKFLIENNYKKNAKYLNKLIQVLGTRSENRIIKTFFKQFPEIENIFRNQL | -0.493
HMTPILTAQQVVAALQAAGYRNVHDLEFEHGRWEADAVNAAGQRVELHINPYTGAIERERLD | -0.0319
HMDKGEQILQQALDKLPPKQRQVFEMRYFDEMPYREIATITETSEGALKASYHHAVKKIQQYISHL | -0.0313
HMGEVVRAPMPGNVLKMEVAQGQEVEEGDLLLVLEAMKMENDIVAPKGGIVIQLVVDKGMVVETDDPLVVI | -0.509
HMETLTPQEHKVLLLAVKGRTNGEIASELGIAQNTVKNHLAHIYAKMGVGNRTELASEYLRRIH | 0.0578
HMGTFIATVEANSLDIYKSMSSNETIGKANKGEVFQILEDMGSGYARVSYNDVEGYLSIRDGDATIEE | -1.54
HMGPLPIDSRYFNNLVPYTGITHVNSVIPEAERHIGLTVVVKTGSTYSEYWYRTGVTNSSLELKT | -0.726
HMTVSRRYTENEMETALKAYLATHNFISRRDMQQEFALTIYSARKWLNHFVDVGLIERIGLKNAPIYKL | 0.22
HMEFDFGAILSGNGGSELYSGYSAEQKAALVEAAKADGMDVEFGADGSTTFKDKDGSEVVQKADGTWTV | -0.0653
